The source of these data is patent US20150024066A1, “METHODS FOR […] TREATING EXCESS WEIGHT USING OXYNTOMODULIN” (IMPERIAL INNOVATIONS, published 2015).

For experiment [1], the target named is T1, GLP-1 receptor (rat, UniProt P32301). The experiment in a line: competition of [^125I]GLP-1 binding to rat hypothalamic membranes, unlabeled peptide varied. The procedure:
Membranes were incubated at room temperature for 90 min. Bound and free radioactivity were separated by centrifugation (2 min, 4° C.). Pelleted membranes were washed with assay buffer (0.5 ml, ice-cold), and the membranes were centrifuged as described above. The supernatant was removed, and the radioactivity in the pellet was counted using a γ-counter. […] All curves were constructed with points in triplicate. IC₅₀ values were calculated using the Prism 3 program (GraphPad Software, Inc., San Diego, Calif.).

Experiment [2] has as its target T1, GLP-1 receptor. Nature of the experiment: competition of [^125I]GLP-1 binding to rat hypothalamic membranes; reference GLP-1.

B1: oxyntomodulin (OXM) (peptide)
peptide: HSQGTFTSDYSKYLDSRRAQDFVQWLMNTKRNKNNIA
In general, IC50 refers to the concentration needed to halve the response being measured. On to B1, for which the IC50 in experiment [1] was determined as 8.2 nM. In addition, the “affinity relative to GLP-1” value in experiment [2] was ~2 orders of magnitude weaker.
